This assay deals with Human placental collagen, type III (Sigma) (human) (UniProt P02461). Kind of assay: cell-based or functional assay.
Chain of UniProt P02461 (P02461 154-1221): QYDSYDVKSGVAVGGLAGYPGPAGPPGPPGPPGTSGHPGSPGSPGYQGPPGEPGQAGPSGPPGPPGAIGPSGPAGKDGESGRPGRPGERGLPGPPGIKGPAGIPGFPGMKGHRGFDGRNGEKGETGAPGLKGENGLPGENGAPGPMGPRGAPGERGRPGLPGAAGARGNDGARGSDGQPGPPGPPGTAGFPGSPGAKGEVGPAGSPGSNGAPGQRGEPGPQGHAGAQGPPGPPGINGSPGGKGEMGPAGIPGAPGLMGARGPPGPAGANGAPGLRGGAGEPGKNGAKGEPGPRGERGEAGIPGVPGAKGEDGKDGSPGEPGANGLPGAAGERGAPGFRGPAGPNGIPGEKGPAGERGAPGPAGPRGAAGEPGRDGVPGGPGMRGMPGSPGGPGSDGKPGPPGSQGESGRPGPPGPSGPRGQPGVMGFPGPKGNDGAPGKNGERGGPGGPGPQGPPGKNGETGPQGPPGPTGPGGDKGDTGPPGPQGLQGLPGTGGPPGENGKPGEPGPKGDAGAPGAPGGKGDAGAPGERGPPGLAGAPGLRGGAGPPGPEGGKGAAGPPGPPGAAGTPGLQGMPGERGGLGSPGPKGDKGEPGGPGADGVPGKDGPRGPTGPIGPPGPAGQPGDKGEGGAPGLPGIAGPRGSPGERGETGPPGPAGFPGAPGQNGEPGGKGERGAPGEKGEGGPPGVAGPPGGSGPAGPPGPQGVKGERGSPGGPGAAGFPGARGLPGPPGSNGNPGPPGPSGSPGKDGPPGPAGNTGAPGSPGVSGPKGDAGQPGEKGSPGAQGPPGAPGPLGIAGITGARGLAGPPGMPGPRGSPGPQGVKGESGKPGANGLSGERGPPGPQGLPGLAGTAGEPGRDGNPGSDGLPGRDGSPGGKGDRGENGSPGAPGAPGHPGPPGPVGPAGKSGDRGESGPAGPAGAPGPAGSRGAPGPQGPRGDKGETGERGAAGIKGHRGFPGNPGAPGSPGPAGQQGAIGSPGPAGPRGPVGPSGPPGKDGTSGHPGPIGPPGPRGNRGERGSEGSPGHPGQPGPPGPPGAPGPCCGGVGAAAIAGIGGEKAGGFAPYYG

Turning to “Saratin (protein isolated from the saliva of the leech Hirudo medicinalis; 103 amino acids)”, the platelet binding on collagen type III coated surface pretreated with Saratin, whole human blood under flow (shear rate 1300 s-1) was found to be 80% and the reduction in platelet deposition on collagen type III coated coverslips at a shear rate of 1300 s-1 amounted to 81%.

The values are drawn from patent US20060094079A1.
